Positions count from the first letter of the chain named.

Drawing on patent US20220332804A1 (CSL INNOVATION, published 2022), this text covers Fold diff for one molecule.

What all share (assay): SPR, KD relative to WT C2;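 note: biacore SPR at 37 °C, anti-C2 mAbs captured via immobilised goat anti-human IgG, C2 alanine or serine surface mutants as analytes, 1:1 model fitted, double-referenced sensograms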
Background: Surface plasmon resonance follows binding to a sensor surface in real time, without labels.

Experiment [1] concerns the target T1, human C2 Y328A (human, UniProt P06681 21-752).
T1 sequence: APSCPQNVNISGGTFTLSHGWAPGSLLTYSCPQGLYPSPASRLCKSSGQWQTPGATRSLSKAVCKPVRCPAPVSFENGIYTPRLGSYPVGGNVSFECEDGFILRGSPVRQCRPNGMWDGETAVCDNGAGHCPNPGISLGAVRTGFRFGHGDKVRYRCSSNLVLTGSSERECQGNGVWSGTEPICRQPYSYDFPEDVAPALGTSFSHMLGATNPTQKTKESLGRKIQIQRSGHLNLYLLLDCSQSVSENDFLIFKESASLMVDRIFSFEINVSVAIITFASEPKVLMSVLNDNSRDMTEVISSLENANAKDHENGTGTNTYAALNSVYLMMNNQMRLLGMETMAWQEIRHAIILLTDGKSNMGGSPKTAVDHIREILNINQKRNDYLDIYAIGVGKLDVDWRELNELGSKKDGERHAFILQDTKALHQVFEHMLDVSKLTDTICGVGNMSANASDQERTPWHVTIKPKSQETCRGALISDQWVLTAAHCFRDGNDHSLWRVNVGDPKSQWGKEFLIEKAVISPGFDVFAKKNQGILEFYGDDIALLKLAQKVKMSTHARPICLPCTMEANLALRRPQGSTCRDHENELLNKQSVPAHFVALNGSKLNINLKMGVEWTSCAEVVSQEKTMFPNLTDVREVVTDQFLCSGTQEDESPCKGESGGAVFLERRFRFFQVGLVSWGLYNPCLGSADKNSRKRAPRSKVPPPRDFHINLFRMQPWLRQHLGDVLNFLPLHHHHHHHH

In experiment [2] the target is T2, human C2 N621A (human, UniProt P06681 21-752).
T2 sequence: T1 sequence with A308Y, N601A

For experiment [3], the target named is T3, human C2 E532A (human, UniProt P06681 21-752).
T3 sequence: T1 sequence with A308Y, E512A

Experiment [4] has as its target T4, human C2 I272A (human, UniProt P06681 21-752).
T4 sequence: T1 sequence with I252A, A308Y

B1: RF16-226 (antibody, human IgG4 S228P, lambda)
heavy: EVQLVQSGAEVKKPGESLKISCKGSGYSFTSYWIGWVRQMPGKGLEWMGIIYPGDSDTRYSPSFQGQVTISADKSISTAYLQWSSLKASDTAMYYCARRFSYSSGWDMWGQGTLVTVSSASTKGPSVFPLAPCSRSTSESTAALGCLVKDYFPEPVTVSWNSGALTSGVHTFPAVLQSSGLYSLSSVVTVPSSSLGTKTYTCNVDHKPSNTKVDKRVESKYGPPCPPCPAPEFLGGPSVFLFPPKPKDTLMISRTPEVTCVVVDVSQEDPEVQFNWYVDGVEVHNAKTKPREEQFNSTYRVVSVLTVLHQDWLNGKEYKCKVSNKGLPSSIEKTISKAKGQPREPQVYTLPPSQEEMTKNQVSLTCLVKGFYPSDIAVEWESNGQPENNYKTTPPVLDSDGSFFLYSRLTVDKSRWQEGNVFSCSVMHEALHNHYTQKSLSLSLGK
light: SYELTQPPSVSVSPGQTARITCSGDALTSKYVAWYQQKSGLAPLLVIYEDTRRPSGIPAKFSGSSSGSVATLTISGAHGDDEADYYCYSTDASGHQRVFGGGTKLTVLSQPKAAPSVTLFPPSSEELQANKATLVCLISDFYPGAVTVAWKADGSPVKAGVETTKPSKQSNNKYAASSYLSLTPEQWKSHRSYSCQVTHEGSTVEKTVAPTECS
notes: pH-dependent anti-C2 antibody from a phage display library; also called WT
Turning to B1, the Fold diff in experiment [1] turned out to be 8 fold; in experiment [2], 5 fold; in experiment [3] it was 2 fold; in experiment [4], 1 fold.
